Laboratory results: patent US20160031968A1 (Bayer, published 2016)
Numbering of substitutions follows the chain as printed. In names and notes the source's numbering stands. One block for each molecule: values may come before it.

Columns and labels:
[1] = test system: T1, Var97, a variant of D519VE665V-FVIII with the additional amino acid substitutions I371P, V374F, V559L, R562W and Q565E
T1 sequence: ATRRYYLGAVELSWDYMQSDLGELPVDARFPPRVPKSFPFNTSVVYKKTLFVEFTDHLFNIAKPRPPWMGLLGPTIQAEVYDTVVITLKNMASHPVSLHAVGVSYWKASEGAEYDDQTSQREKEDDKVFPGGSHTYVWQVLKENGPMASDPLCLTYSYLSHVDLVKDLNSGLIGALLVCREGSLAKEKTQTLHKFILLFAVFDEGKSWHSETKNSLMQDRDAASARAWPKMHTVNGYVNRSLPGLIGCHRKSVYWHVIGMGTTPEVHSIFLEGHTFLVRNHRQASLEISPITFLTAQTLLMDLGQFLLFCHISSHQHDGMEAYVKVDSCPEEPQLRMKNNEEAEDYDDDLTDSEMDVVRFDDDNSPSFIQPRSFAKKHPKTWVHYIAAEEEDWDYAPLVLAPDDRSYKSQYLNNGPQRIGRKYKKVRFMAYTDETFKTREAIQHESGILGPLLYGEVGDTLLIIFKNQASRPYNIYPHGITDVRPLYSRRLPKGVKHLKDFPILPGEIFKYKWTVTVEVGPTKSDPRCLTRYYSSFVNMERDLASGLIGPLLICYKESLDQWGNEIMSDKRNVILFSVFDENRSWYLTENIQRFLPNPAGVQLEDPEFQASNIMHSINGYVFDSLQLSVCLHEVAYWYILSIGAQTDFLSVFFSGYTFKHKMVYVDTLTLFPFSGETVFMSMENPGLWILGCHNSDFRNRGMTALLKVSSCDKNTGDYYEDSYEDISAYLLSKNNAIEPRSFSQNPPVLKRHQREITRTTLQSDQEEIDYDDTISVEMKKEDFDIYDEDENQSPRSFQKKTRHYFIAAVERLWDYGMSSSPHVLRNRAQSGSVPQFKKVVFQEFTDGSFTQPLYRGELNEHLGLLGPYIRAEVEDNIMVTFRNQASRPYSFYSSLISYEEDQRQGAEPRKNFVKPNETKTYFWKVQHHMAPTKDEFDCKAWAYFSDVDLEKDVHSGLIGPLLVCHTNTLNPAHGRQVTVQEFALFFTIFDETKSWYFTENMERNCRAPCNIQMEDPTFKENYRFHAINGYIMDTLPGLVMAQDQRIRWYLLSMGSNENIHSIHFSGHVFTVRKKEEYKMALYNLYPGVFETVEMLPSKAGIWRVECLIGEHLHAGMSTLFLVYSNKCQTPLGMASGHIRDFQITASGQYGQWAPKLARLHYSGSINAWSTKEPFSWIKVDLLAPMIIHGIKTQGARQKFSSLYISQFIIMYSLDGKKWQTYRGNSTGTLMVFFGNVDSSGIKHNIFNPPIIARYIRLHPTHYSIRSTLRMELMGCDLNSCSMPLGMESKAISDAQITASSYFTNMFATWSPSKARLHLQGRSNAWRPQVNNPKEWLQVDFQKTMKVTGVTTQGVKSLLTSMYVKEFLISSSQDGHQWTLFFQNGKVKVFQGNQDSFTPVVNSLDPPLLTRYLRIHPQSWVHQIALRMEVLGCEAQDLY

Var97-R336I = test system: T2, Var97-R336I
T2 sequence: T1 sequence with R336I

[2] = target: T3, Factor IXa (activated Coagulation Factor IX) (human, UniProt P00740 47-191; P00740 227-461, limits assumed); assay: FXase kinetic assay: thrombin-activated FVIII fixed at 10 pM, FIXa varied 0-10 nM, FXa generation read with S-2765 (functional affinity)
T3 construct: also called FIXa
Method: The function of the Var97 variant in its physiologic enzyme complex was examined using FXase kinetic assays. These FXase kinetic assays were performed in 10 mM HEPES pH 7.4, 150 mM NaCl, 5 mM CaCl2, 0.01% Tween 20, 0.01% BSA and 10 μM PL (40:40:20, v/v/v PS:PC:PE). In these FXase kinetic assays, purified FVIIIa proteins were generated by incubation with 20 nM thrombin. The FVIII level was held fixed at 10 pM and reacted with varying concentrations of FIXa (0-10 nM), or the FIXa level was held fixed at (100 pM) and the level of thrombin activated FVIIIa was varied (0-10 nM). FX (150 nM) was added to either types of reactions, and after 1 min., the FXase reactions were stopped by addition to EDTA. The amount of FXa generated in these reactions were measured using the S-2765 chromogenic substrate. FXa generation was then extrapolated from a standard curve relating FXa level to rates of chromogenic substrate cleavage. The data was fit to a standard Michaelis-Menten equation to derive kinetic constants.

T3 sequence (P00740 47-191 limits assumed, form in doubt, chain 1 of 2): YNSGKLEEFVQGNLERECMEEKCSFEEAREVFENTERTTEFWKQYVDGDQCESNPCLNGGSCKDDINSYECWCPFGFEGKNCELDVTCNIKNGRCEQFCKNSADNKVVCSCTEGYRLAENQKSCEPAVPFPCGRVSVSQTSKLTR
T3 sequence (P00740 227-461 limits assumed, form in doubt, chain 2 of 2): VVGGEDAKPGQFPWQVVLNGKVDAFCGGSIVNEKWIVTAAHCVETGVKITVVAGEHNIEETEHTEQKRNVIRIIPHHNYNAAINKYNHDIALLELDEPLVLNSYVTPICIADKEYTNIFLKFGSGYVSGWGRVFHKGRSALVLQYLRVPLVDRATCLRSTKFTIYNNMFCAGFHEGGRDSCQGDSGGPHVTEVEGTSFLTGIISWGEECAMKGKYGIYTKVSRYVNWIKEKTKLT

Molecule: Factor IXa (activated Coagulation Factor IX)
proteolytic cleavage of FVIII by excess FIXa in a FXase reaction (SDS-PAGE, Coomassie Blue) [1]: the Var97 Factor VIII variant shows enhanced proteolytic cleavage by FIXa relative to one or both of BDD and D519VE665V variant FVIII
proteolytic cleavage in the FIXa digestion assay (SDS-PAGE) (Var97-R336I): proteolytic cleavage of Var97-R336I was markedly reduced as compared to Var97

fold binding affinity for FIXa over FVIII-BDD [2]: ≥ 4 fold
B1: Var97, a variant of D519VE665V-FVIII with the additional amino acid substitutions I371P, V374F, V559L, R562W and Q565E (other)
chain: T1 sequence
notes: Purified from HKB11 cells; also called Var97 variant; Var97 Factor VIII variant
